For one series, the target named is PRMT5 (UniProt O14744). The experiment in a line: co-IP and immunoblot. Particulars: reference: LSH wild type; sites S503. (Immunoblotting shows a protein as a band on a membrane.)

The values below come from PMC7524730.

Read-outs that look alike come from different tables or passages of the source.

For “LSH (lymphoid-specific helicase; HELLS) (from UniProt Q9NRZ9) LSH S503A”, the “binding against the reference” value with PRMT5 was “stronger”. In the case of “LSH (lymphoid-specific helicase; HELLS, PASG, SMARCA6): Lambda Protein Phosphatase (λPP)”, under “phosphorylation at S503”, the other entry is “increases”. As for “LSH (lymphoid-specific helicase; HELLS, PASG, SMARCA6): MAPK1 shRNA knockdown; LY3214996 (MAPK1/2 inhibitor)”, the other result (phosphorylation at S503) is “increases”. With “LSH (lymphoid-specific helicase; HELLS, PASG, SMARCA6): R309A”, where the note is “methylation at R309”, the localisation_or_trafficking entry was “no change” and the other result is listed as “increases”. For “LSH (lymphoid-specific helicase; HELLS, PASG, SMARCA6): R507A”, the other entry (methylation at R507) is reported as “no change”. Turning to “LSH (lymphoid-specific helicase; HELLS, PASG, SMARCA6): R541A”, the other entry (methylation at R541) is listed as “no change”. With “LSH (lymphoid-specific helicase; HELLS, PASG, SMARCA6): S503A”, under “phosphorylation at S503”, the localisation_or_trafficking entry is “no change” and the other entry is reported as “increases”.

Consider “LSH (lymphoid-specific helicase; HELLS, PASG, SMARCA6): S503D phosphomimic”, for which the other entry (phosphorylation at S503) is given as “decreases”.
